Measurements taken from paper PMC3111228 (The Journal of neuroscience : the official journal of the …, 2011).
Substitutions are numbered along the chain they refer to. Names may count otherwise.

B1: GST-mGluR1-Cprox with mGluR5 888-EKSTRGQHL-896 in place of 901-…-909 (domain or fragment)
chain: PERNVRSAFTTSDVVRMHVGDGKLPCRSNTFLNIFRRKKPGAGNANSNGKSVSWSEPGGEKSTRGQHLWQRLSVHVKTNETACNQTAVIKPLTKSYQGSGKSLTFSDASTKTLYNVEE
B2: GST-mGluR1 V909L (domain or fragment)
chain: B1 chain with E60R, K61Q, S62A, T63P, R64K
B3: GST-mGluR5-Cprox with EKST exchanged (domain or fragment)
chain: PERNVRSAFTTSTVVRMHVGDGKSSSAASRSSSLVNLWKRRGSSGETLSSNGKSVTWAQNRQAPRGQHLWQRLSVHINKKENPNQTAVIKPFPKSTENRGPGAAAGGGSGPGVAGAG

biological target: recombinant CaM (calmodulin) (UniProt P0DP23 1-149); experiment: pull-down

Binding result, binds:
B1
B2
B3
